The values that follow come from US20260043816A1 (AC IMMUNE, published 2026).

Experiment [1] deals with T1, biotinylated TDP-43 phospho peptide 370-384 (pS379) (human).
T1 peptide: Biotin-GNNSYSGSN[pS]GAAIG
As to the kind of experiment: capture ELISA, antibody on anti-mouse IgG, biotinylated peptide. As for the experimental part: (§1) Briefly, for capture detection in ELISA, wells of 96-well plates were coated with 5 μg/mL goat anti-mouse IgG (Fc gamma fragment specific), in carbonate buffer, overnight at 4° C. Plates were then washed with 0.05% Tween-20/PBS and blocked with 1% bovine serum albumin (BSA) in 0.05% Tween-20/PBS for 1 hour at 37° C. Phospho TDP-43 antibodies were then added at 5 μg/mL and incubated for 2 hours at 37° C. after which the plates were washed as described above. Biotinylated peptides representing each of the phospho sites, or non-phosphorylated, were incubated at 0.5 mM in 0.1% BSA and PBS for 1 hour at 37° C. after which the plates were washed. A streptavidin-HRP-conjugate (R&D Systems, Minnesota, United States) was added at 1/200 dilution in 0.05% Tween-20/1% BSA in PBS for 45 minutes in the dark at ambient temperature. After the final wash, plates were incubated with TMB (Sigma-Aldrich, Switzerland), an HRP substrate solution, and read at 405 nm using an ELISA plate reader (Tecan, Switzerland).
(In an ELISA, binding on a coated surface is turned into a signal by an enzyme label.)

Experiment [2] deals with T2, biotinylated TDP-43 phospho peptide 370-384 (pS375) (human).
T2 peptide: Biotin-GNNSY[pS]GSNSGAAIG
The experiment is described as above. How it is done:
as §1

For experiment [3], the target named is T3, biotinylated non-phosphorylated TDP-43 peptide 366-414 (human, biotin on the N-terminus).
T3 peptide: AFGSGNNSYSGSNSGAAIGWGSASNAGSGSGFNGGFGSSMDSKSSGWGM
The description is as above. As for the experimental part: as §1

Experiment [4] deals with T4, biotinylated TDP-43 phospho peptide 370-384 (pS375 and pS379) (human).
T4 peptide: Biotin-GNNSY[pS]GSN[pS]GAAIG
The experiment is described as above. As for the experimental part: as §1

Experiment [5] has as its target T5, biotinylated TDP-43 phospho peptide 401-413 (pS410) (human).
T5 peptide: Biotin-FGSSMDSKS[pS]GWG
The description is as above. As for the experimental part: as §1

Experiment [6] has as its target T6, biotinylated TDP-43 phospho peptide 401-413 (pS409) (human).
T6 peptide: Biotin-FGSSMDSK[pS]SGWG
The experiment is described as above. As for the experimental part: as §1

Experiment [7] addresses T7, biotinylated TDP-43 phospho peptide 401-413 (pS409 and pS410) (human).
T7 peptide: Biotin-FGSSMDSK[pS][pS]GWG
Described as above. As for the experimental part:
as §1

Experiment [8] addresses T8, recombinant full length TDP-43 (SEQ ID NO: 1, FL TDP-43) (human, UniProt Q13148 1-414).
T8 construct: also called recombinant human soluble FL TDP-43; soluble human TDP-43
Briefly: pairing sandwich ELISA, biotinylated antibody as detector, FL TDP-43 titrated. How it is done:
(§2) The capacity of antibodies to bind phospho TDP-43 and TDP-43 was determined using a sandwich enzyme-linked immunosorbent assay (ELISA), where each antibody was paired with a second TDP-43 antibody previously characterized for TDP-43 binding and performance in sandwich immunoassays, ACI-7071-809F12-Ab1-rec2 (as described in WO2020234473) or ACI-7069-636E5-Ab1 (as described in WO2020234473). ELISA plates (Nunc™ Edge™ 96-Well, Non-Treated, Flat-Bottom Microplate, ThermoFisher Scientific, Denmark) were coated with 5 μg/mL of anti-phospho TDP-43 or anti-TDP-43 antibodies in carbo/bicarbonate buffer, overnight at 4° C. Plates were then washed with 0.05% Tween-20/PBS and blocked with 1% bovine serum albumin (BSA) in 0.05% Tween-20/PBS for 1 hour at 37° C. The plates were then washed again as described above.
(§3) Serial-dilutions of target peptide or protein were then added to the plates. For assays with anti-phospho TDP-43 antibodies, one of four peptide conjugates (peptides 11, 23, 28, or 29) each composed of two TDP-43 sequences, one phosphorylated and one non-phosphorylated, conjugated together with a Trioxatridecan-succinamic acid linker (Ttds, binding regions and sequences shown in Table 4) were used. Peptides 11, 23, 28, and 29 were added in a 10-fold serial dilution starting at 0.5 μM. […] The plate was read at 450 nm using an ELISA plate reader (Tecan, Switzerland).

Experiment [9] has as its target T8, recombinant full length TDP-43 (SEQ ID …). As to the kind of experiment: pairing sandwich ELISA, antibody coated as capture, FL TDP-43 titrated. How it is done: as §2
Serial-dilutions of target peptide or protein were then added to the plates. For assays with anti-phospho TDP-43 antibodies, one of four peptide conjugates (peptides 11, 23, 28, or 29) each composed of two TDP-43 sequences, one phosphorylated and one non-phosphorylated, conjugated together with a Trioxatridecan-succinamic acid linker (Ttds, binding regions and sequences shown in Table 4) were used. Peptides 11, 23, 28, and 29 were added in a 10-fold serial dilution starting at 0.5 μM. For assays with TDP-43 antibodies only, recombinant full length TDP-43 (SEQ ID NO: 1, FL TDP-43) was diluted 3-fold from 21.9 pM. Plates were incubated for 1 hour at 37° C., and then washed. […] PEG-biotinylated phospho TDP-43 or TDP-43 antibodies were then respectively added to the wells and incubated for 1 hour at 37° C., after which the plates were washed. Horseradish peroxidase (HRP)-conjugated streptavidin (R&D Systems, Switzerland) was added at 1/200 dilution in 1% BSA and 0.05% Tween-20/PBS for 45 min at room temperature. […] The plate was read at 450 nm using an ELISA plate reader (Tecan, Switzerland).

Experiment [10] has as its target T9, Peptide 29 (human, phosphoserine at pS409 and pS410 (human TDP-43 numbering, in the SEQ ID NO: 9 part); Trioxatridecan-succinamic acid (Ttds) linker between SEQ ID NO: 7 and SEQ ID NO: 9).
T9 peptide: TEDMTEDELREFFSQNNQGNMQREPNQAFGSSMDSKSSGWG
Briefly: SPR Biacore 8K, antibody captured, peptide analyte, single-cycle kinetics, 1:1 fit. As for the experimental part: (§4) Each cycle started with the non-covalent capture of the antibody which were diluted in running buffer to a final concentration of 5 μg/mL and injected for 120 sec with a flow rate of 10 μL/min. Antibodies being measured were captured in channels […], leaving Fc 1 as a blank Fc. Capture levels were evaluated following a 120 sec stabilization period after each antibody injection. ACI-7071-809F12-Ab1-rec2 was used as control, binding to the non-phosphorylated sequences represented in peptides 28 and 29.
(§5) Injections of peptides 28 or 29 were performed using single-cycle kinetics with increasing concentrations ranging from 1.2 to 100 nM prepared as a 3-fold serial dilution. Injections were performed with contact times of 300 sec/injection at a flow rate of 30 μL/min. A dissociation phase of 900 sec followed the final injection. Sensor surface was regenerated by two injection of 10 mM Glycine-HCl pH 1.7 at a flow rate of 10 μL/min for 60 sec, followed by a stabilization period of 120 sec. Results obtained from single-cycle kinetics were double-referenced using the blank Fc 1 and buffer cycles and evaluated by Biacore 8K evaluation software (Cytiva). The following kinetic parameters were obtained using the 1:1 binding fit model with variable Reflective Index (RI): association rate constant (ka), dissociation rate constant (kd), affinity constant (KD) and saturation response (Rmax).
For orientation: Surface plasmon resonance follows binding to a sensor surface in real time, without labels.

Experiment [11] addresses T9, Peptide 29. As to the kind of experiment: pairing sandwich ELISA, biotinylated antibody as detector, target titrated. How it is done: as §2, §3
Experiment [12] addresses T9, Peptide 29. As to the kind of experiment: pairing sandwich ELISA, antibody coated as capture, target titrated. How it is done:
as §2, §3

The target of experiment [13] is T9, Peptide 29. As to the kind of experiment: SPR Biacore 8K, antibody from purified hybridoma supernatant captured, peptide analyte, 1:1 fit. As for the experimental part:
as §4, §5

Where a chain is given by its changes, count along the chain named. Square brackets hold non-standard residues; d marks the D form. Ends that are not written are not given here. * marks the point of attachment. Biotin = O=C1N[C@H]2[C@H](CS[C@H]2CCCCC(=O)*)N1; pS = N[C@@H](COP(=O)(O)O)C(=O)O

B1: ACI-8071-943.7D3-Ab1 (antibody, V domains shown)
VH: QVQLQQPGTELVKPGASVKLSCKASGYTFTRYWMHWMKQRPGQGLEWIGNINPSDGGTNYNEKFKNKASLTVDKSSSTAYMQLSRLTSEDSAVYYCARRGSGYWGQGTTLTVSS
VL: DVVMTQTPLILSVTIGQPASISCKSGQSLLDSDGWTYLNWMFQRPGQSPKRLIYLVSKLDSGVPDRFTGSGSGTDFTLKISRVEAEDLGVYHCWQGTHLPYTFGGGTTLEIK
notes: also called 943.7D3E2; pS403/pS404 TDP-43 antibody
Turning to B1, the binding result in experiment [1], in experiment [2], in [3] and in experiment [4] was “no binding (tested: peptide at 0.5 mM)” throughout.

B2: ACI-8071-943.2E6-Ab1 (antibody, V domains shown)
VH: B1 VH with R31S, M37V, S54I, D55N, G56S, G57D, N66T, S69T, R85S
VL: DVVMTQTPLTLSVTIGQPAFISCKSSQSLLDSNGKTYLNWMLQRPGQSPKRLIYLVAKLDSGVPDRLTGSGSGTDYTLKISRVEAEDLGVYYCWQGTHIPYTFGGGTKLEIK
notes: also called 943.2E6E10; pS403/pS404 TDP-43 antibody
Consider B2, for which the binding result in [1], in experiment [5], in experiment [2], in experiment [3], in experiment [6] and in experiment [7] was “no binding (tested: peptide at 0.5 mM)” throughout. The binding result in experiment [4] is “no binding (tested: peptide at 0.5 mM)”.

B3: ACI-8071-943.7H9-Ab1 (antibody, V domains shown)
VH: EIQLQQSGTVMARPGASVKMSCKTSGYIFTNYWMHWVKQRPGQGLDWIGTIYPGNSDTDYNQNFKGKAKLTAVTSASTAYMELSSLTNEDSAVYFCIRGGWGGFPYWGQGTLVTVSA
VL: DVVMTQIPLSLPVSLGDQASISCRSSQRLVHSNGNTYLHWYLQKPGQSPKFLIHKVSNRFSGVPDRFSGSGSGTDFTLKIRRVEAEDLGVYFCCQSTHVPYTFGGGTKLEIK
notes: also called 943.7H9H8; pS403/pS404 TDP-43 antibody
B3: the binding result in experiment [1], in experiment [2], in experiment [3] and in experiment [4] was “no binding (tested: peptide at 0.5 mM)” throughout.

B4: ACI-8071-943.12A8-Ab1 (antibody, V domains shown)
VH: EVQLVESGGGLVHPKGSLQLSCAASGFTFNTYTMHWVRQAPGKGLEWVARIRSKRSNYATYYADSVKDRFTISRDDSQSMLYLQMNNLKTEDTAIYYCVRGTGSYWGQGTSVTVSS
VL: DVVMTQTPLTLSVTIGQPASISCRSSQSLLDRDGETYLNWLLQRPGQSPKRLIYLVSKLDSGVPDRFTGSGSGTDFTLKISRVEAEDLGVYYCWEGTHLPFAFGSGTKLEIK
notes: also called 943.12A8B4; pS403/pS404 TDP-43 antibody
Take B4: the binding result in [1], in experiment [5], in experiment [2], in experiment [3], in experiment [6] and in experiment [7] was “no binding (tested: peptide at 0.5 mM)” throughout. Besides, the binding result in experiment [4] is “no binding (tested: peptide at 0.5 mM)”.

B5: ACI-7069-636E5-Ab1 (as described in WO2020234473) (antibody, V domains shown)
VH: EVHLVESGGDLVMPGGSLKLSCAASGFTFSNYGMSWVRQTPDKRLEWVATISSGGKYINYLDSLKGRFTISRDNAKNTLYLQMSSLKSEDTAMYYCAKDYGSGWAWFAYWGQGTLVTVSA
VL: QLVLTQSSSASFSLGASAKLTCTLSSQHSTYTIEWYQQQPLKPPKYVMELKKDGSHSTGDGIPDRFSGSSSGADRYLSISNIQPEDEAIYICGVGDTIKEQFVYVFGGGTKVTVL
notes: also called 636E5B8
The term EC50 denotes the concentration at which the effect is half-maximal. As to B5, the EC50 in [8] was determined as 0.07 nM; in [9], 1.16 nM.

B6: ACI-8072-946.8H6-Ab1 (antibody, V domains shown)
VH: EEHLVESGGGLVKPGGSLKLSCAASGFTFSDYGMQWVRQAPEKGLEWVAYISSGSSTIYYEDTVKGRFTISRDNAKNTLFLQMTSLRSEDTAMYYCVRPYDNYGQGTLVTVSA
VL: DVLMTQTPLSLPVSLGDQASISCRSSQSIVHSNGNTYLEWYLQKPGQSPKLLIYKVSNRFSGVPDRFSGSGSGTDFTLKISRVEAEDVGVYYCFQGSHVPRTFGGGTKLEIK
notes: also called 946.8H6D10; pS409/pS410 TDP-43 antibody
The Kd is the concentration at which binding is half-saturated. High values mean lower affinity, low ones higher affinity. One may read the koff as the rate constant with which the complex falls apart. High values mean fast dissociation, low ones slow dissociation. For orientation: kon means a measure of how fast the partners come together. Turning to B6, in [10], the equilibrium dissociation constant (Kd) amounted to 3.28 nM, the koff came to 0.00469 s⁻¹ and the on-rate constant (kon) is 1.43e+06 M⁻¹ s⁻¹. Further, the EC50 in [11] was 1.12 nM. The molecule further registered an EC50 in experiment [12] of 0.111 nM.

B7: ACI-8072-946.9D6-Ab1 (antibody, V domains shown)
VH: B6 VH
VL: DIVLTQSPASLAVSLGQRATISCRASKSVSTSGYSYMHWYQQKPGQPPKLLIYLASNLESGVPARFSGSGSGTDFTLNIHPVEEEDAATYYCQHSRELPWTFGGGTKLEIK
notes: Data marked * were generated with hybridoma / purified hybridoma supernatant; also called 946.9D6F3
In experiment [13], B7 yielded a Kd of 2.29 nM, a koff of 0.000707 s⁻¹ and a kon of 309000 M⁻¹ s⁻¹.

B8: ACI-8072-946.4G5-Ab1 (antibody, V domains shown)
VH: B6 VH with E2V, H3Q, Q35H, E61A, I70M, V97S, D101G
VL: B6 VL with V88L
notes: also called 946.4G5F1; pS409/pS410 TDP-43 antibody
With B8, in experiment [10], the affinity, expressed as Kd, was 1.68 nM; the koff worked out at 0.000817 s⁻¹; the kon is 487000 M⁻¹ s⁻¹. This molecule displayed an EC50 in experiment [11] of 1.96 nM. The molecule further displayed an EC50 in [12] of 0.196 nM.
